Data as given in paper PMC5670123, “The structural basis of proton driven zinc transport by ZntB” (Nature Communications, 2017).

Biological target: the molecule itself
Test: cryo-EM structure; single-particle cryo-EM of DDM-solubilized, purified EcZntB pre-treated with EDTA (apo), ~10 mg/ml, 50 mM Tris/HCl pH 8.0, 250 mM NaCl, 0.03% DDM; overall resolution 4.2 Å

B1: ZntB from Escherichia coli, full-length (natural protein, UniProt P64423 1-327, looked up)
chain: MEAIKGSDVNVPDAVFAWMLDGRGGVKPLENTDVIDEAHPCWLHLNYVHHDSAQWLATTPLLPNNVRDALAGESTRPRVSRLGEGTLITLRCINGSTDERPDQLVAMRVYMDGRLIVSTRQRKVLALDDVVSDLEEGTGPTDCGGWLVDVCDALTDHSSEFIEQLHDKIIDLEDNLLDQQIPPRGFLALLRKQLIVMRRYMAPQRDVYARLASERLPWMSDDQRRRMQDIADRLGRGLDEIDACIARTGVMADEIAQVMQENLARRTYTMSLMAMVFLPSTFLTGLFGVNLGGIPGGGWQFGFSIFCILLVVLIGGVALWLHRSKWL
notes: Zinc transporter ZntB of Escherichia coli (CorA metal ion transporter family), full-length; Homopentamer in DDM micelles, apo (pre-treated with EDTA); TEV protease (ProTev Plus) is described only for the proteoliposome transport assay, not for the cryo-EM sample; also called EcZntB; source: membrane vesicles solubilized in DDM, purified (Ni2+-sepharose, EDTA treatment, Superdex 200 SEC)
stoichiometry N: 5
